B1: N-330: sNASP truncated at residue 330 (protein, UniProt P49321 1-330, looked up, fragment)
chain: MAMESTATAAVAAELVSADKIEDVPAPSTSADKVESLDVDSEAKKLLGLGQKHLVMGDIPAAVNAFQEAASLLGKKYGETANECGEAFFFYGKSLLELARMENGVLGNALEGVHVEEEEGEKTEDESLVENNDNIDEEAREELREQVYDAMGEKEEAKKTEDKSLAKPETDKEQDSEMEKGGREDMDISKSAEEPQEKVDLTLDWLTETSEEAKGGAAPEGPNEAEVTSGKPEQEVPDAEEEKSVSGTDVQEECREKGGQEKQGEVIVSIEEKPKEVSEEQPVVTLEKQGTAVEVEAESLDPTVKPVDVGGDEPEEKVVTSENEAGKAVL
modifications: sNASP
B2: N-300: sNASP truncated at residue 300 (protein, UniProt P49321 1-300, looked up, fragment)
chain: MAMESTATAAVAAELVSADKIEDVPAPSTSADKVESLDVDSEAKKLLGLGQKHLVMGDIPAAVNAFQEAASLLGKKYGETANECGEAFFFYGKSLLELARMENGVLGNALEGVHVEEEEGEKTEDESLVENNDNIDEEAREELREQVYDAMGEKEEAKKTEDKSLAKPETDKEQDSEMEKGGREDMDISKSAEEPQEKVDLTLDWLTETSEEAKGGAAPEGPNEAEVTSGKPEQEVPDAEEEKSVSGTDVQEECREKGGQEKQGEVIVSIEEKPKEVSEEQPVVTLEKQGTAVEVEAESL
modifications: sNASP

Tested on: MBP H3 116–135
Assay: Pulldown of MBP H3 116–135 by (His)6-sNASP truncations
Format: binding
Conditions: (His)6-tagged sNASP truncations, SDS-PAGE, Coomassie, western blotting for MBP
Experimental: Protein was eluted in the same buffer with 250 mM imidazole, but without protease inhibitors. The (His)6 tag was cleaved overnight by TEV protease, whilst concomitantly dialysing to 100 mM sodium chloride, 20 mM Tris–HCl pH 8.0, 1 mM EDTA and 5 mM dithiothreitol. Cleaved protein was further purified by ion-exchange using a ResourceQ column (GE Healthcare) before gel filtration chromatography in 200 mM sodium chloride, 20 mM Hepes-KOH pH 7.6 and 1 mM EDTA using a 26/60 Superdex 200 column (GE Healthcare). The purified protein was concentrated and stored in aliquots at −80°C. Homologues, truncations and point mutants of sNASP were expressed and purified using the same method. MBP-H3 peptide fusions were expressed in bacteria and used as whole cell extracts (epitope mapping) or purified over a Dextrin Sepharose column (GE Healthcare) in one-step purification in 0.5 M sodium chloride, 20 mM Hepes-KOH pH 7.6, 1 mM EDTA and 5 mM dithiothreitol. Concentrated protein was dialysed against 200 mM sodium chloride, 20 mM Hepes-KOH, 1 mM EDTA and 5 mM dithiothreitol and stored in aliquots at −80°C.
Mutations were made in the MBP H3 116–135 construct using a mixture of site-direct mutagenesis and oligo ligation. Whole cell extracts were prepared from bacteria and used as inputs for the pulldown experiments with (His)6-sNASP pre-bound to Nickel-NTA beads (GE Healthcare).
A BsNASP mutantsH3 peptide […]
200 A260 M Elution volume (mL) […]
construct used for NMR (A) Various truncations of (His)6-sNASP were tested for their ability to pull down MBP -H3 116-135 ( W T ) or a scrambled peptide (Sc). […]
separated by SDS-PAGE and stained with Coomassie. […]
western blotting for MBP was also carried out. (B) Domain diagrams of truncations shown in A with TPR motifs in green, the acidic loop region in yellow and the predicted capping region in grey. A summar y of the interaction with MBP-H3 116-135 is shown on the right hand side.
Binding Protein; CR, capping region; TPR, tetratricopeptide repeat; cTPR, contiguous TPR; mcTPR, minimum contiguous […]

Molecule	ability to bind / pull down MBP H3 116–135	ability to bind / pull down MBP H3 116–135 (listed as truncation at residue 330)	ability to bind / pull down MBP H3 116–135 (listed as Truncating sNASP close to TPR4 at residue 300)
B1	binds the H3 C-terminal peptide with affinity similar to the full length	retained the interaction	–
B2	incapable of binding H3	–	loss of interaction

From publication PMC4838342 (Nucleic Acids Research, 2015)
